For assay [1], the target named is T1, recombinant biotinylated CD71 extracellular domain (Sino Biologics) with an N-terminal 6His tag (human, UniProt P02786 89-760, biotinylated (site not stated)).
T1 construct: extracellular domain; also called hCD71; huCD71 ECD
Briefly: primary solution ELISA screen. For orientation: ELISA stands for enzyme-linked immunosorbent assay.

The target of assay [2] is T1, recombinant biotinylated CD71 …. Briefly: primary solution ELISA screen, signal on hCD71 over HSA.

T1 sequence (P02786 other isoform, or with tags, fused parts or gaps): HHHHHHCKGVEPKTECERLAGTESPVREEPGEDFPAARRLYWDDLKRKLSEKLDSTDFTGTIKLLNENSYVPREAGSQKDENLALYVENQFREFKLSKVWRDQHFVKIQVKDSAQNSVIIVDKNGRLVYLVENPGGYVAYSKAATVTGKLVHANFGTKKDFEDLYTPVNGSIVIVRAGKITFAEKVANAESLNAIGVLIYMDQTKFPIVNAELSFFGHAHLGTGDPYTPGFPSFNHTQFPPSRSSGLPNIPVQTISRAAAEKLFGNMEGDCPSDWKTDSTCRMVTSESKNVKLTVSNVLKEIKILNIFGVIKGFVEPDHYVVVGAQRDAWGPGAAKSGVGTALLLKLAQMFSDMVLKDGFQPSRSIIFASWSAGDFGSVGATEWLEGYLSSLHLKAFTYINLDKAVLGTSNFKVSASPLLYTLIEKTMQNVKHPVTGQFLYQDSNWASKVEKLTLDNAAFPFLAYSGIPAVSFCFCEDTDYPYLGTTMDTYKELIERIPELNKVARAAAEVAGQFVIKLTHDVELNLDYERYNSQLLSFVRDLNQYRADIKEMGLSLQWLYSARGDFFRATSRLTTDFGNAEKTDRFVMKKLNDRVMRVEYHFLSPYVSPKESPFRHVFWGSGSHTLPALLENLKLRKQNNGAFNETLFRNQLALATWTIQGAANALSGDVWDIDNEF

B1: SEQ ID NO 38 (designed binder, not shown: small tags and cut ends)
chain: MLPAPKNLVVSRVTEDSARLSWTAPDAAFDSFPILYLEHTVRSEAIVLTVPGSERSYDLTDLKPGTEYCVPIDGVKGGLRSRPLSAIFTT
notes: FN3 domain, hit of the apical domain panning
Take B1: in assay [1], the RLU came to 518000 RLU. Besides, the “hCD71:HSA” value in assay [2] stood at 63.

B2: SEQ ID NO 4 (designed binder, not shown: small tags and cut ends)
chain: MLPAPKNLVVSEVTEDSARLSWQGVARAFDSFLITYRDQIFAGEVIVLTVPGSERSYDLTGLKPGTEYPVWIQGVKGGSPSAPLSAESTT
notes: as for B1
Take B2: the RLU in assay [1] worked out at 2.1e+06 RLU. For the same molecule, the “hCD71:HSA” value in assay [2] is 12.

B3: SEQ ID NO 84 (designed binder, not shown: small tags and cut ends)
chain: MLPAPKNLVVSRVTEDSARLSWQGVARAFDSFSILYLELTPKGEAIVLTVPGSERSYDLTGLKPGTEYPVWIQGVKGGSPSAPLSAEFTT
notes: as for B1
Turning to B3, in assay [1], the RLU is 3.53e+06 RLU. Moreover, the “hCD71:HSA” value in assay [2] worked out at 28.

B4: SEQ ID NO 81 (designed binder, not shown: small tags and cut ends)
chain: MLPAPKNLVVSRVTEDSARLSWQGVARAFDSFLITYVELRHLGEAIVLTVPGSERSYDLTGLKPGTEYPVWIQGVKGGSPSAPLSAEFTT
notes: as for B1
For B4, the RLU in assay [1] worked out at 864000 RLU. Besides, the “hCD71:HSA” value in assay [2] was determined as 88.

B5: SEQ ID NO 28 (designed binder, not shown: small tags and cut ends)
chain: MLPAPKNLVVSEVTEDSARLSWQGVVRAFDSFLITYREQIFAGEVIVLTVPGSERSYDLTGLKPGTEYPVWIQGVKGGSPSAPLSAEFTT
notes: as for B1
For the molecule B5, the RLU in assay [1] came out at 383000 RLU. The “hCD71:HSA” value in assay [2] came to 28.

B6: SEQ ID NO 5 (designed binder, not shown: small tags and cut ends)
chain: MLPAPKNLVVSEVTEDSARLSWQGVARAFDSFLITYREQIFAGEVIVLTVPGSERSYDLTGLKPGTEYWVYIWGVKGGKPSFPLRAGFTT
notes: as for B1
With B6, in assay [1], the RLU was 1.73e+06 RLU. In addition, the “hCD71:HSA” value in assay [2] worked out at 39.

B7: SEQ ID NO 15 (designed binder, not shown: small tags and cut ends)
chain: MLPAPKNLVVSRVTEDSARLSWQGVARAFDSFLITYREQIFAGEVIVLTVPGSERSYDLTGLKPGTECPVWIQGVKGGSPSAPLSAEFTT
notes: as for B1
B7: the RLU in assay [1] stood at 512000 RLU. The “hCD71:HSA” value in assay [2] is 35.

B8: SEQ ID NO 36 (designed binder, not shown: small tags and cut ends)
chain: MLPAPKNLVVSEVTEDSARLSWQGVARAFDSFLITYREQIFAGEVIVPTVPGSERSYDLTGLKPGTEYPVPIAGVKGGGPSAPLSAIFTT
notes: as for B1
Regarding B8, the RLU in assay [1] is 288000 RLU. Also, the “hCD71:HSA” value in assay [2] amounted to 60.

B9: SEQ ID NO 73 (designed binder, not shown: small tags and cut ends)
chain: MLPAPKNLVVSEVTEDSARLSWQGVARAFDSFLITYREQIFAGEVIVLTVPGSERSYDLTGLKPGTEYPVWIQGVKGGSPSAPLSAESTT
notes: as for B1
Take B9: in assay [1], the RLU amounted to 1.47e+06 RLU. The “hCD71:HSA” value in assay [2] was determined as 73.

B10: SEQ ID NO 70 (designed binder, not shown: small tags and cut ends)
chain: MLPAPKNLVVSRVTEDSARLSWQGVARAFDSFLITYREQIFAGEVIVLTVPGSERSYDLTGLKPGTEYPVWIQGVKGGDLSNPLSAIFTT
notes: as for B1
As to B10, in assay [1], the RLU came out at 991000 RLU. In assay [2], the “hCD71:HSA” value was found to be 10.

B11: SEQ ID NO 41 (designed binder, not shown: small tags and cut ends)
chain: MLPAPKNLVVSRVTEDSARLSWQGVARAFDSFLITYREQIFAGEVIVLTVPGSERSYDLTGLKPGTEYPVWIQGVKGGHLSDPLSAIVTT
notes: as for B1
As for B11, the RLU in assay [1] turned out to be 1.37e+06 RLU. The “hCD71:HSA” value in assay [2] was found to be 12.

B12: SEQ ID NO 102 (designed binder, not shown: small tags and cut ends)
chain: MLPAPKNLVVSRVTEDSARLSWQGVARAFDSFLITYREQIFAGEVIVLTVPGSERSYDLTGLKPGTEYPVWIQGVKGGSPSAPLSAEFTT
notes: as for B1
Consider B12, for which the RLU in assay [1] was found to be 444000 RLU. Also, the “hCD71:HSA” value in assay [2] was 11.

B13: SEQ ID NO 7 (designed binder, not shown: small tags and cut ends)
chain: MLPAPKNLVVSDVTEDSARLSWQGVARAFDSFLITYREQIFAGEVIVLTVPGSERSYDLTGLKPGTEYPVWIQGVKGGSPSAPLSAEFTT
notes: as for B1
On to B13, for which the RLU in assay [1] worked out at 761000 RLU. For the same molecule, in assay [2], the “hCD71:HSA” value is 29.

B14: SEQ ID NO 94 (designed binder, not shown: small tags and cut ends)
chain: MLPAPKNLVVSEVTEDSARLSWQGVARAFDSFLITYREQIFAGEVIVLTVPGSERSYDLTGLKPGTEYPVWIQGVKGGSPSAPLSAIFTT
notes: as for B1
As to B14, in assay [1], the RLU came out at 1.02e+06 RLU. Also, the “hCD71:HSA” value in assay [2] stood at 12.

B15: SEQ ID NO 53 (designed binder, not shown: small tags and cut ends)
chain: MLPAPENLVVSEVTEDSARLSWQGVARAFDSFLITYREQIFAGEVIVLTVPGSERSYDLTGLKPGTEYPVWIQGVKGGSPSAPLSAESTT
notes: as for B1
Regarding B15, the RLU in assay [1] was determined as 1.27e+06 RLU. Further, the “hCD71:HSA” value in assay [2] amounted to 40.

B16: SEQ ID NO 32 (designed binder, not shown: small tags and cut ends)
chain: MLPAPKNLVVSRVTEDSARLSWQGVARAFDSFLITYREQIFAGEVIVLTVPGSERSYDLTGLKPGTEYGVTIAGVKGGWRSKPLNAESTT
notes: as for B1
As for B16, the RLU in assay [1] was found to be 342000 RLU. Moreover, the “hCD71:HSA” value in assay [2] stood at 75.

B17: SEQ ID NO 40 (designed binder, not shown: small tags and cut ends)
chain: MLPAPKNLVVSRVTEDSARLSWTAPDAAFDSFTIDYWENRCPGEAIVLTVPGSERSYDLTGLKPGTEYCVWISGVKGGYSSWPLSAIFTT
notes: as for B1
As for B17, the RLU in assay [1] was 223000 RLU. The “hCD71:HSA” value in assay [2] is 16.

B18: SEQ ID NO 19 (designed binder, not shown: small tags and cut ends)
chain: MLPAPKNLVVSRVTEDSARLSWTAPDAAFDSFAITYTEAALCGEAIVLTVPGSERSYDLTGLKPGTEYPVPINGVKGGGTSGPLSAIFTT
notes: as for B1
Turning to B18, in assay [1], the RLU came out at 956000 RLU. In addition, the “hCD71:HSA” value in assay [2] was 53.

B19: SEQ ID NO 39 (designed binder, not shown: small tags and cut ends)
chain: MLPAPKNLVVSRVTEDSARLSWTAPDAAFDSFPIPYTEPPDPGEAIVLTVPGSERSYDLTGLKPGTEYLVTILGVKGGSMSVPLSAIFTT
notes: as for B1
As for B19, the RLU in assay [1] came to 1.48e+06 RLU. For the same molecule, the “hCD71:HSA” value in assay [2] was found to be 29.

B20: SEQ ID NO 12 (designed binder, not shown: small tags and cut ends)
chain: MLPAPKNLVVSRVTEDSARLSWTAPDAAFDSFFIPYAEPSPTGEAIVLTVPGSERSYDLTGLKPGTEYSVLIHGVKGGHLSDPLSAISTT
notes: as for B1
Regarding B20, the RLU in assay [1] amounted to 1.24e+06 RLU. Also, the “hCD71:HSA” value in assay [2] turned out to be 25.

B21: SEQ ID NO 49 (designed binder, not shown: small tags and cut ends)
chain: MLPAPKNLVVSRVTEDSARLSWTAPDAAFDSFPIAYAEPRPDGEAIVLTVPGSERSYDLTGLKPGTEYSVLIHGVKGGDWSLPLSAIFTT
notes: as for B1
As for B21, the RLU in assay [1] stood at 969000 RLU. For the same molecule, the “hCD71:HSA” value in assay [2] worked out at 70.

B22: SEQ ID NO 77 (designed binder, not shown: small tags and cut ends)
chain: MLPAPKNLVVSRVTEDSARLSWTAPDAAFDSFPIAYAEPRPDGEAIVLTVPGSERSYDLTGLKPGTEYSVLIHGVKGGLLSSPLSAIFTT
notes: as for B1
With B22, the RLU in assay [1] was 739000 RLU. Besides, the “hCD71:HSA” value in assay [2] amounted to 71.

B23: SEQ ID NO 82 (designed binder, not shown: small tags and cut ends)
chain: MLPAPKNLVVSRVTEDSARLSWTAPDAAFDSFLIPYAETSPSGEAIVLTVPGSERSYDLTGLKPGTEYSVLIHGVKGGDYSSPLSAIFTT
notes: as for B1
As for B23, in assay [1], the RLU was determined as 1.56e+06 RLU. Also, the “hCD71:HSA” value in assay [2] was 105.

B24: SEQ ID NO 83 (designed binder, not shown: small tags and cut ends)
chain: MLPAPKNLVVSRVTEDSARLSWTAPDAAFDSFPIAYAEPRPDGEAIVLTVPGSERSYDLTGLKPGTEYSVLIHGVKGGLLSSPLSAISTT
notes: as for B1
Take B24: the RLU in assay [1] was determined as 3.26e+06 RLU. Moreover, the “hCD71:HSA” value in assay [2] turned out to be 29.

B25: SEQ ID NO 65 (designed binder, not shown: small tags and cut ends)
chain: MLPAPKNLVVSRVTKDSARLSWTAPDAAFDSFPIAYAEPRPDGEAIVLTVPGSERSYDLTGLKPGTEYSVLIHGVKGGLLSSPLSAIFTT
notes: as for B1
Take B25: the RLU in assay [1] came to 959000 RLU. Moreover, in assay [2], the “hCD71:HSA” value came out at 60.

B26: SEQ ID NO 42 (designed binder, not shown: small tags and cut ends)
chain: MLPAPKNLVVSRVTEDSARLSWTAPDAAFDSFLIPYAETSPSGEAIVLTVPGSERSYDLTGLKPGTEYSVLIHGVKGGDYSEPLSAIFTT
notes: as for B1
For B26, the RLU in assay [1] turned out to be 586000 RLU. Moreover, the “hCD71:HSA” value in assay [2] came out at 586.

B27: SEQ ID NO 64 (designed binder, not shown: small tags and cut ends)
chain: MLPAPKNLVVSRVTEDSARLSWTAPDAAFDSFYIVYAEPIPNGEAIVLTVPGSERSYDLTGLKPGTEYSVLIHGVKGGRNSDPLSAIFTT
notes: as for B1
On to B27, for which the RLU in assay [1] worked out at 1.31e+06 RLU. Also, the “hCD71:HSA” value in assay [2] stood at 218.

B28: SEQ ID NO 68 (designed binder, not shown: small tags and cut ends)
chain: MLPAPKNLVVSRVTEDSARLSWTAPDAAFDSFIIPYAEVRPDGEAIVLTVPGSERSYDLTGLKPGTEYSVLIHGVKGGHLSDPLSAISTT
notes: as for B1
As to B28, in assay [1], the RLU is 521000 RLU. In assay [2], the “hCD71:HSA” value worked out at 14.

B29: SEQ ID NO 99 (designed binder, not shown: small tags and cut ends)
chain: MLPAPKNLVVSRVTEDSARLSWTAPDAAFDSFFIPYAEPSPTGEAIVLTVPGSERSYDLTGLKPGTEYSVLIHGVKGGHLSDPLSVIFTT
notes: as for B1
B29: the RLU in assay [1] came out at 440000 RLU. Also, the “hCD71:HSA” value in assay [2] was 45.

B30: SEQ ID NO 57 (designed binder, not shown: small tags and cut ends)
chain: MLPAPKNLVVSRVTEDSARLSWTAPDAAFDSFAIPYAELSRNGEAIVLTVPGSERSYDLTGLKPGTEYTVLIHGVKGGCLSDPLSAIFTT
notes: as for B1
In the case of B30, the RLU in assay [1] is 1.12e+06 RLU. Moreover, the “hCD71:HSA” value in assay [2] stood at 29.

B31: SEQ ID NO 44 (designed binder, not shown: small tags and cut ends)
chain: MLPAPKNLVVSRVTEDSARLSWTAPDAAFDSFFIPYAEPSPTGEAIVLTVPGSERSYDLTGLKPGTEYSVLIHGVKGGHLSDPLSAIVTT
notes: as for B1
Regarding B31, the RLU in assay [1] amounted to 715000 RLU. Further, in assay [2], the “hCD71:HSA” value is 13.

B32: SEQ ID NO 46 (designed binder, not shown: small tags and cut ends)
chain: MLPAPKNLVVSRVTEDSARLSWTAPDAAFDSFIIPYAEVRPDGEAIVLTVPGSERSYDLTGLKPGTEYSVLIHGVKGGKLSLPLSAIFTT
notes: as for B1
As to B32, the RLU in assay [1] worked out at 1.04e+06 RLU. In assay [2], the “hCD71:HSA” value amounted to 127.

B33: SEQ ID NO 37 (designed binder, not shown: small tags and cut ends)
chain: MLPAPKNLVVSRVTEDSARLSWTTPDAAFDSFPIYYWEVTITGEAIYLSVPGSERSYDLTGLKPGTEYPVDIPGVKGGAASPPLSAIFTT
notes: as for B1
Consider B33, for which the RLU in assay [1] amounted to 2.95e+06 RLU. In assay [2], the “hCD71:HSA” value was found to be 103.
